To fix the notation:
B2: recombinant DSG2 EC2-EC3 extracellular domains (domain or fragment, human, UniProt Q14126 149-386, looked up)
chain: VLDINDNEPVFTQDVFVGSVEELSAAHTLVMKINATDADEPNTLNSKISYRIVSLEPAYPPVFYLNKDTGEIYTTSVTLDREEHSSYTLTVEARDGNGEVTDKPVKQAQVQIRILDVNDNIPVVENKVLEGMVEENQVNVEVTRIKVFDADEIGSDNWLANFTFASGNEGGYFHIETDAQTNEGIVTLIKEVDYEEMKNLDFSVIVANKAAFHKSIRSKYKPTPIPIKVKVKNVKEGI
notes: desmoglein 2 (DSG2), human, EC2-EC3 domains, residues V149-I386 of Swiss-Prot Q14126.2; Cloned AgeI/KpnI in pHL-sec, which supplies a secretion signal and the C-terminal His6; also called rDSG2; soluble rDSG2; source: HEK293 F, transiently transfected, secreted, purified from supernatant (His GraviTrap, Superdex 200)
B3: human HAdV-11 fiber knob, wild type (domain or fragment)
chain: DDNINTLWTGVNPTEANCQIMNSSESNDCKLILTLVKTGALVTAFVYVIGVSNNFNMLTTHRNINFTAELFFDSTGNLLTRLSSLKTPLNHKSGQNMATGAITNAKGFMPSTTAYPFNDNSREKENYIYGTCYYTASDRTAFPIDISVMLNRRAINDETSYCIRITWSWNTGDAPEVQTSATTLVTSPFTFYYIREDD
notes: HAdV-11 fiber protein, knob, residues D128 to D325 of Swiss-Prot P35774; gene synthesised by GenScript; Trimeric form purified; amine-coupled to the biosensor in the kinetic BLI; also called HAd11K; HAd11 knob; not shown: His6, N-terminal, kept

For data set [1], the target named is B3. The data set is described as follows: BLI; HAd11K (WT or D265A), 100 µg/mL in 10 mM sodium acetate pH 4, amine-coupled to AR2G biosensor; rDSG2 or rCD46 0.7-10.8 µM in HBS-P (10 mM HEPES, 145 mM NaCl, 0.005% P20, pH 7.4) with 3 mM CaCl2; room temperature; association 180 s, dissociation 120 s; global fit. Particulars: both partners purified. A general note: BLI is a label-free optical method that tracks binding on a fibre tip over time.

Data set [2] addresses B3. The data set can be described thus: cryo-EM structure; SEC fraction of HAd11K/rDSG2/rCD46 super-complex (rDSG2:rCD46 3:1). To be noted: both partners purified.
Data set [3] addresses B2. The data set is described as follows: BLI; HAd11K (WT or D265A), 100 µg/mL in 10 mM sodium acetate pH 4, amine-coupled to AR2G biosensor; rDSG2 or rCD46 0.7-10.8 µM in HBS-P (10 mM HEPES, 145 mM NaCl, 0.005% P20, pH 7.4) with 3 mM CaCl2; room temperature; association 180 s, dissociation 120 s; global fit. Particulars: both partners purified.
Data set [4] deals with the molecule itself. The data set can be described thus: cryo-EM structure; HAd11K in complex with rDSG2; two populations (one or two rDSG2 per knob trimer).

What is called Kd is a measure of binding affinity in units of concentration. One may read the koff as the first-order rate constant of dissociation. As usually defined, the kon is the rate constant with which the complex forms. In general, stoichiometry N refers to a count of units in the complex or per binding partner.

B1: recombinant CD46 SCR1-SCR2 domains (domain or fragment, human, UniProt P15529 35-160, looked up)
chain: CEEPPTFEAMELIGKPKPYYEIGERVDYKCKKGYFYIPPLATHTICDRNHTWLPVSDDACYRETCPYIRDPLNGQAVPANGTYEFGYQMHFICNEGYYLIGEEILYCELKGSVAIWSGKPPICEKV
notes: hCD46, the two first extracellular domains (SCR1, SCR2), residues C35-V160 of Swiss-Prot P15529; gene synthesised by GenScript; Cloned in the same vector pHL-sec as rDSG2 (secretion signal, C-terminal His6); also called rCD46; soluble rCD46; source: HEK293 F, transiently transfected, secreted, purified from supernatant (His GraviTrap, Superdex 200)
For the molecule B1, in data set [1], binding was put at a Kd of 243 nM, the off-rate constant (koff) was 0.005 s⁻¹ and the kon was 22800 M⁻¹ s⁻¹. Also, the “stoichiometry N” value in data set [2] was found to be 1.

Turning to B2, the “stoichiometry N” value in data set [2] amounted to 1.

Take B3: in data set [3], the dissociation constant (Kd) turned out to be 2900 nM, the koff was 0.114 s⁻¹ and the kon is 39400 M⁻¹ s⁻¹. Moreover, in data set [4], the “stoichiometry N” value came to 3.
